Reference: patent US20170360796A1, “BTK INHIBITOR COMBINATIONS AND DOSING REGIMEN” (PHARMACYCLICS LLC, priority 2014, published 2017)

Tests used:
[1] = test system: B-cell lines including CLL cells; settings: compared with rituximab; cited from earlier work
[2] = test system: patients with relapsed/refractory CLL; settings: single agent; cited from earlier work
[3] = test system: patients with relapsed/refractory CLL and related diseases; test: Phase 1b/2 study of ibrutinib combined with ofatumumab (NCT01217749): efficacy; format: in vivo, human; settings: group 3, ofatumumab lead-in before initiating ibrutinib
From the text: Key eligibility criteria also included failure of ≧2 prior therapies including a nucleoside analogue (unless contraindicated); ≧10% expression of CD20 on CLL/SLL cells by flow cytometry; ECOG performance status ≦2; and adequate end-organ function.
This phase 1 b/2, single-center, open-label, sequential-group study was approved by the institutional review board and conducted in accordance with the principles of the Declaration of Helsinki and the International Conference on Harmonization Guidelines for Good Clinical Practice.

For “ofatumumab: anti-CD20 monoclonal antibody that binds to an epitope distinct from that for rituximab”, the “complement-dependent cytotoxicity and NK-cell ADCC” value [1] is given as “more potent”, the “Major bleeding events ≧ grade 3” value [2] is given as 1.6% and the “peripheral sensory neuropathy (grade 1 and 2)” value [2] is given as 13%. The “patients who progressed (PD) on ofatumumab monotherapy” value [3] was 17%.
